Source: the supplement of paper PMC9732359
± gives the uncertainty stated by the source.

Test: protein stability index of a GFP-peptide fusion (yeast GPS) (PSI 1-4); higher = more stable; sorted into four equal gates, so the index is relative within each strain
Summary of the method: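 Tiled 17-residue peptides from yeast proteins were fused downstream of GFP on a plasmid that also expresses Cherry, and the pooled library was carried in yeast. Mid-log cultures grown in leucine-free medium were sorted into four equal gates by GFP/Cherry fluorescence ratio. Plasmids from each gate were PCR-amplified and Illumina-sequenced, and reads were assigned to strains by barcodes. Each peptide's protein stability index is the sum, over gates, of the gate's read frequency multiplied by its gate number.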

Sequence	protein stability index (doa10∆)	protein stability index (pdr5∆)	protein stability index (san1∆)	protein stability index (ubr1∆)
LKNFLSYESLKKRKIHN [MCD1]	1.55 ± 0.038	1.46 ± 0.039	2.12 ± 0.048	1.59 ± 0.034
LKNIMKVSDPYVPTRNT [RPN4]	3.07 ± 0.15	2.67 ± 0.18	2.78 ± 0.071	2.59 ± 0.11
LKNKYESYDAALSLHRE [FAS2]	3.181 ± 0.019	3.134 ± 0.016	3.083 ± 0.014	3.034 ± 0.014
LKNSIMSFIFPSYAERQ [YML031W/NDC1]	2.51 ± 0.075	2.54 ± 0.083	2.38 ± 0.079	2.4 ± 0.067
LKQPPFQITLSSDDLQN [SSN8]	2.23 ± 0.059	2.31 ± 0.077	2.34 ± 0.064	2.35 ± 0.085
LKRRQVIEQCYLKFIPL [SRB8]	1.91 ± 0.045	1.98 ± 0.048	1.52 ± 0.082	1.83 ± 0.032
LKSAENSGKQQYYRGLP [SWP82]	2.25 ± 0.1	2.24 ± 0.067	2.25 ± 0.21	2.75 ± 0.068
LKTNFETEWNLQTLAAD [RPB11]	2.79 ± 0.13	2.91 ± 0.11	2.53 ± 0.079	2.67 ± 0.1
LKVDPDMLTWVDSNLPD [RPC40]	3.02 ± 0.082	3.13 ± 0.062	2.54 ± 0.16	3.26 ± 0.073
LKVNVTLDNPLLVDKDA [YJL039C/NUP192]	3.02 ± 0.077	2.93 ± 0.065	3 ± 0.041	2.7 ± 0.051
LKWKKGIRGKLVTIEGA [SMC1]		3.31 ± 0.24	3.31 ± 0.12	
LLAEEEELILPNTKDAM [PRP8]	3.16 ± 0.089	3.44 ± 0.072	3.36 ± 0.063	3.04 ± 0.079
LLAHKVADEEANIELTW [RPC37]	1.49 ± 0.074		1.59 ± 0.14	1.74 ± 0.1
LLARVIQMNNSLQNNLQ [SNF11]	3.01 ± 0.11	2.46 ± 0.097	2.36 ± 0.084	2.06 ± 0.086
LLDFNTALKQYEKELMG [RPN6]	3.14 ± 0.25	3.33 ± 0.19	3.32 ± 0.25	3.12 ± 0.13
LLEISCKQWEISNMLKK [CSI1]	1.5 ± 0.052	1.58 ± 0.048	1.75 ± 0.077	1.5 ± 0.046
LLEQKKSIINSQRPGAR [ITC1]		2.67 ± 0.2	2.47 ± 0.23	2.62 ± 0.11
LLETITYVLNTWTNSKI [YML103C/NUP188]	1.85 ± 0.05	2.21 ± 0.05	2.14 ± 0.066	2.29 ± 0.036
LLFAINSYQPSPFFVLD [SMC1]	2.16 ± 0.06	2 ± 0.078	2.23 ± 0.082	2.57 ± 0.044
LLFPKSTIVNLAREVPQ [DPB4]	1.77 ± 0.14	2.24 ± 0.25	1.72 ± 0.18	1.94 ± 0.14
LLGARHYTPAVDLWSVG [SSN3]	1.29 ± 0.19	1.15 ± 0.19		
LLGYTGIPTDKGPRFRK [PRE8]	2.81 ± 0.18	3.02 ± 0.14	2.66 ± 0.066	2.98 ± 0.11
LLHHVSELDSNDFFIIY [YJL039C/NUP192]	1.7 ± 0.088	1.74 ± 0.088	1.61 ± 0.14	2.02 ± 0.078
LLKGPASTVAKTAPIQE [YOR098C/NUP1]	2.52 ± 0.1	2.46 ± 0.094	1.91 ± 0.18	2.87 ± 0.071
LLKLLTRLVQLREFRIT [GRR1]	1.89 ± 0.053	1.27 ± 0.044	1.23 ± 0.13	1.08 ± 0.052

Sequence	protein stability index (doa10∆)	protein stability index (pdr5∆)	protein stability index (san1∆)	protein stability index (ubr1∆)
LLKPFHVKVNDKKEMTI [SIR3]	3.05 ± 0.18	2.58 ± 0.15	2.21 ± 0.14	2.68 ± 0.14
LLKQYPKDSSSTFREWK [YJR042W/NUP85]	2.54 ± 0.045	2.6 ± 0.048	2.71 ± 0.038	2.81 ± 0.042
LLMSCPRLSHLSLTAVP [GRR1]	1.9 ± 0.051	1.57 ± 0.054	1.63 ± 0.12	2.19 ± 0.059
LLNAADRDALSGWGAVV [PUP3]	3.17 ± 0.12	3.2 ± 0.099	3.03 ± 0.081	3.09 ± 0.099
LLQLKYFSNKTSTGIIR [POP5]	2.46 ± 0.19	1.84 ± 0.13	1.35 ± 0.29	1.98 ± 0.062
LLRFNGVERLIPVGDNT [PRE4]	1.58 ± 0.068	1.73 ± 0.07	1.53 ± 0.13	1.86 ± 0.093
LLSDVVSTSSGAAANNN [YJL041W/NSP1]	3.24 ± 0.077	3.06 ± 0.11	3.32 ± 0.047	3.52 ± 0.11
LLSGEDLTLDDISLKAD [YJL039C/NUP192]	3.36 ± 0.052	3.39 ± 0.065	3.44 ± 0.038	3.23 ± 0.048
LLSSESNIPTLIEKLQG [YDL116W/NUP84]	2.42 ± 0.091	3.01 ± 0.11	2.6 ± 0.047	3.07 ± 0.072
LLTPDIGAVYSGMGPDY [PRE8]	1.32 ± 0.055	1.72 ± 0.074	1.2 ± 0.1	1.52 ± 0.081
LLYADSLTAEAMTAAEH [CYT1]	2.34 ± 0.056	2.67 ± 0.054	2.78 ± 0.057	2.58 ± 0.041
LMASVILDSLPSVIHSS [YDL116W/NUP84]	1.76 ± 0.042	1.38 ± 0.039	1.34 ± 0.067	1.48 ± 0.034
LMDDMSDISDLDDLGFL [RPN3]	1.77 ± 0.062	1.81 ± 0.059	1.92 ± 0.091	1.77 ± 0.04
LMDKCLPKVRIRTRRAA [DIS3]	1.86 ± 0.06	1.34 ± 0.048	1.42 ± 0.085	1.5 ± 0.039
LMEKNRIRKLTGQNFLT [REC8]	1.36 ± 0.044	1.37 ± 0.038	1.65 ± 0.077	1.33 ± 0.041
LMLEDTDGDSILYYDVL [BRR2]	2.85 ± 0.074	3.17 ± 0.092	3.12 ± 0.067	3.1 ± 0.058
LMRELLKMMKLIVDTHV [PRP8]	1.9 ± 0.083	1.34 ± 0.06	2.29 ± 0.088	1.39 ± 0.06
LMYQIKKECALLISYGV [SRB4]	1.9 ± 0.12	3.09 ± 0.16	2.12 ± 0.19	1.93 ± 0.15
LNAIILKLEKLNTNRTF [SMC3]	2.19 ± 0.047	2.31 ± 0.051	2.24 ± 0.09	2.76 ± 0.048
LNAITLDGDRADKRGVL [SMC3]	2.94 ± 0.15	3.1 ± 0.17		3.03 ± 0.097
LNAIVSKNSPAEDDVII [YJR042W/NUP85]	3.44 ± 0.14	3.37 ± 0.17	3.27 ± 0.087	3.22 ± 0.12
LNDEGEPIKVNVRVGQA [RPN1]	3.13 ± 0.09	3.03 ± 0.062	2.85 ± 0.065	3.2 ± 0.063
LNDENSDDYDNEGAASS [SMC1]	3.39 ± 0.25			
LNDSNVKSFKPHLLKQG [RRP42]	2.63 ± 0.083	3.25 ± 0.18	2.58 ± 0.24	2.54 ± 0.13
LNEALLQCPMLYVESTG [CSN12]	1.47 ± 0.088	1.26 ± 0.09	1.23 ± 0.15	1.19 ± 0.054
